Experimental data from paper PMC11267363, “Supramolecular Nanofibers Ameliorate Bleomycin‐Induced Pulmonary Fibrosis by Restoring Autophagy” (Advanced Science, 2024).

Target: T1, Recombinant human TRB3 (tribbles homolog 3) (human, UniProt Q96RU7 1-358)
T1 construct: pseudokinase tribbles homolog 3 (TRB3), human, recombinant; as I recall, the catalogue suffix H09B stands for a His and GST tagged protein made in baculovirus-infected insect cells (surmise); also called TRB3 protein; human TRB3 protein; source: bought: Sino Biological (10731-H09B)
T1 sequence (looked up): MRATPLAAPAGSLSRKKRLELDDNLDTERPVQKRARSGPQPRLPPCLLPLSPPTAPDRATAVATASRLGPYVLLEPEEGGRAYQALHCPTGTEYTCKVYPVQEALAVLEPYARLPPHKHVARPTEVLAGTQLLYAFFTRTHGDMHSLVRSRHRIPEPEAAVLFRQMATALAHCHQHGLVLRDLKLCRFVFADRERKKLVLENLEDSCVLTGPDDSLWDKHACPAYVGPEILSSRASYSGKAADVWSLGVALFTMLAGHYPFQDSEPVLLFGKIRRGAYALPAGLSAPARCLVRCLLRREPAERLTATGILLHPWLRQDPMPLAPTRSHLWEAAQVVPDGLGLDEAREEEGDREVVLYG
Assay: MST; Monolith NT.115; Ac-GFFY-A2 or A2 against human TRB3 protein or BSA (negative control); which partner was labelled is not told
Settings: both partners purified

Kd: ~3.21 µM
B1: A2 peptide (TRB3-binding peptide fragment derived from p62) (peptide)
peptide: GGWLTRLLQTK
notes: also called non-self-assembling peptide A2; source: synthetic peptide (SPPS, purified by HPLC)
